Common to all, as to details: both partners purified
Assay [1] deals with T1, yellow fever virus (YFV) strain Asibi soluble E ectodomain (sE) (yellow fever virus, strain Asibi). Kind of assay: SPR; pH 8; pr injected over immobilized sE; Biacore T200, 25°C.
Assay [2] deals with T1, yellow fever virus (YFV) strain Asibi …. Kind of assay: SPR; pH 6; pr injected over immobilized sE; Biacore T200, 25°C.
The target is the same in assay [3]. Kind of assay: ITC.

Values joined by “and” are separate entries in the source; they are usually repeats but may differ in a detail not shown here. Identical values can stand only once.

B1: recombinant purified yellow fever virus (YFV) pr protein (natural protein)
chain: not shown
By Kd is commonly meant a measure of binding affinity in units of concentration. A higher Kd goes with lower affinity. In general, koff refers to the rate constant with which the complex falls apart. As a reminder, the kon is the second-order rate constant of association. High values mean faster complex formation, low ones slower complex formation. For orientation: stoichiometry N means the number of molecules, sites or subunits per partner or assembly. Consider B1, for which, in assay [1], the Kd was 19.7 nM, the koff worked out at 0.00134 s⁻¹ and the kon was determined as 70000 M⁻¹ s⁻¹. Moreover, in assay [2], binding was put at a Kd of 6.2 nM, the koff worked out at 0.00236 s⁻¹ and the kon is 380000 M⁻¹ s⁻¹. In assay [3], the dH was -16.6 kcal/mol and -16.3 kcal/mol; the “stoichiometry N” value was found to be 0.9.
